For the assay, the target named is human CCR5 (human) (UniProt P51681). The assay can be described thus: cell-based or functional assay.
Chain of human CCR5 (human) (P51681 whole entry): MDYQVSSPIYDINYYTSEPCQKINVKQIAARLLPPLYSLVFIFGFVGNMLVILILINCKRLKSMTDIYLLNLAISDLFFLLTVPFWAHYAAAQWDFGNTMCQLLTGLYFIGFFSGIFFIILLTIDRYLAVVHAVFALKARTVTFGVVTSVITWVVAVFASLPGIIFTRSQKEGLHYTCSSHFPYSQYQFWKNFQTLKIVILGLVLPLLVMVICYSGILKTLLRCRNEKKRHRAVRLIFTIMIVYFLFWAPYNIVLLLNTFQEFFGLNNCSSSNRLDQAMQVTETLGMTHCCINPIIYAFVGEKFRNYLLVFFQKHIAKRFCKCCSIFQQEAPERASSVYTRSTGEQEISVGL

“AOP-RANTES (from UniProt P13501 24-91) (ligand)” yielded a CCR5 receptor downmodulation on CHO cells expressing CCR5 (FACS) at 1 nM AOP-RANTES of 50% and a CCR5 receptor downmodulation on CHO cells expressing CCR5 (FACS) at 100 nM AOP-RANTES of 90%.

For the origin of these results see US20060078537A1.
